Results from patent US20200405833A1 (AFFIMED, published 2020).
Each block holds one binder with its values, some of them ahead of it.

What was measured:
human EGFR on cells [1] = target: T1, human EGFR on cells (human, UniProt P00533 25-1210); assay: cell-based or functional assay
human EGFR on cells [2] = target: T1, human EGFR on cells; assay: cell-based or functional assay; remark: listed apart in the source
human EGFR on cells [3] = target: T1, human EGFR on cells; assay: cell-based or functional assay; remark: listed apart in the source
human EGFR on cells [4] = target: T1, human EGFR on cells; assay: flow cytometry on HCT-116 cells, 37°C; mean of 2 experiments
Experimental: After the last staining step, the cells were washed again and resuspended in 0.2 mL of FACS buffer containing 2 μg/mL propidium iodide (PI) (Sigma, cat.: P4170) in order to exclude dead cells. The fluorescence of 2-5×10³ living cells was measured using a Millipore Guava EasyCyte flow cytometer (Merck Millipore, Schwalbach, Germany). Mean fluorescence intensities of the cell samples were calculated using the Incyte software (Merck Millipore, Schwalbach, Germany). After subtracting the fluorescence intensity values of the cells stained with the secondary and tertiary reagents alone, the values were used for non-linear regression analysis using the GraphPad Prism software (GraphPad Prism version 6.00 for Windows, GraphPad Software, La Jolla Calif. USA). For the calculation of KD, the equation for one-site-binding (hyperbola) was used.

human EGFR on cells [5] = target: T1, human EGFR on cells; assay: flow cytometry on EGFR-expressing A-431 cells, 37° C.
Human FcRn (FCGRT/B2M) [6] = target: T2, Human FcRn (FCGRT/B2M) (human, UniProt P55899 24-297; P61769 21-119, biotin-labelled (site not stated)); assay: SPR (Biacore T200), pH 6.0, biotinylated FcRn captured, multi cycle kinetics
T2 construct: Purchased; also called FcRn (FCGRT/B2M), His-Tag, Biotin-Labeled, (Human) HiP Cat #71283

[7] = target: T3, Cynomolgus FcRn (FCGRT/B2M) (cynomolgus, UniProt Q8SPV9 24-297; Q8SPW0 21-119, biotin-labelled (Avi-Tag)); assay: as above
T3 construct: Purchased; also called FcRn (FCGRT/B2M), Avi-Tag, Biotin-Labeled, (Cynomolgus) Acro Cat #FCM-C82W5
Experimental: (§1) Binding of EGFR/CD16A antigen-binding proteins to FcRn (human, cynomolgus, murine) was measured on a Biacore T200 Instrument at 25° C. using PBS-T buffer pH 6.0 as running buffer and for dilution (1×Gibco PBS, 0.005% Tween20, titrated to pH 6.0 using 4 M HCl). For this purpose, a Multi Cycle Kinetic experiments was performed using Biotin CAPture Kit (GE Healthcare). For activation of the sensor surface, Biotin CAPture reagent (GE Healthcare) was injected to Flow Cells Fc 1-4 (100 sec, 5 μL/min) resulting in a response of 2100 RU-2800 RU. Biotinylated FcRn of different species were injected to Flow Cell Fc 2 (5 μL/min) resulting in a response of about 8-15 RU. A dilution series of EGFR/CD16A antigen-binding proteins was in (pH 7.4) as running buffer and for dilution. […] Chip was regenerated using Regeneration solution (GE Healthcare) (10 μL/min, Flow cells 1-4, 120 sec). Sensorgrams are referenced by subtraction of zero concentration cycle and subtraction of signals in reference channel Fc 1 (Fc 2-1, Fc 3-1, Fc 4-1). […] Chip was regenerated using Regeneration solution (GE Healthcare) (10 μL/min, Flow cells 1-4, 120 sec). […] Binding kinetics were evaluated by fitting data to 1:1 Binding Model (Rmax and RI locally fitted) using Biacore T200 Evaluation Software.

Mouse FcRn (FCGRT/B2M) [8] = target: T4, Mouse FcRn (FCGRT/B2M) (mouse, UniProt Q61559 22-297; P01887 21-119, biotin-labelled (Avi-Tag)); assay: as above
T4 construct: Purchased; also called murine FcRn; murine FcRn receptor
T4 sequence (looked up): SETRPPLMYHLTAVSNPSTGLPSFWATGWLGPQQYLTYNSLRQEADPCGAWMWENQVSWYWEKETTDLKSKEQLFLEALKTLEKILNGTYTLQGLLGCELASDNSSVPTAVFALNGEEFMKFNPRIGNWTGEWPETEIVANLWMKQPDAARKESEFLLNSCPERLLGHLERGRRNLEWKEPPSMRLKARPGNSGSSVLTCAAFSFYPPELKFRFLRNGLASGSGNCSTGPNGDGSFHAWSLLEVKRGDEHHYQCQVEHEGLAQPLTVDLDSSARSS
T4 sequence (b2m, looked up): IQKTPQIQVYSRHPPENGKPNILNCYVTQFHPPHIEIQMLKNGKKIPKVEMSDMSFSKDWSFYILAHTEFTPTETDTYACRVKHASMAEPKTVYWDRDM
Experimental: as §1

[9] = target: T5, CD16A on primary human NK-cells (human, UniProt P08637 17-254); assay: flow cytometry on primary human NK-cells, 37°C, without IgG; mean of 2 experiments
T5 construct: whole, on cells; also called FcγRIIIA
Experimental: (§2) After the last staining step, the cells were washed again and resuspended in 0.2 mL of FACS buffer containing 2 μg/mL propidium iodide (PI) (Sigma, cat.: P4170) in order to exclude dead cells. The fluorescence of 2-5×10³ living cells was measured using a Millipore Guava EasyCyte flow cytometer (Merck Millipore, Schwalbach, Germany). Mean fluorescence intensities of the cell samples were calculated using Incyte software (Merck Millipore, Schwalbach, Germany). After subtracting the fluorescence intensity values of the cells stained with the secondary and tertiary reagents alone, the values were used for non-linear regression analysis using the GraphPad Prism software (GraphPad Prism version 6.00 for Windows, GraphPad Software, La Jolla Calif. USA). For the calculation of KD, the equation for one-site-binding (hyperbola) was used.
(§3) To assess the impact of physiological concentrations of human IgG on the binding capacity of bispecific EGFR/CD16A antigen-binding proteins, binding assays with several bispecific EGFR/CD16A antigen-binding proteins on primary human NK-cells were performed in presence or absence of 10 mg/mL polyclonal human IgG as exemplarily shown in FIG. 10.

EGFRvIII on CHO cells = target: T6, EGFRvIII on CHO cells (human, UniProt P00533 25-1210); assay: flow cytometry on CHO cells expressing recombinant EGFRvIII, 37°C; apparent affinity
T6 construct: whole, on cells; the exon 2-7 deletion must be applied; also called EGFRvIII+ CHO cells
Experimental: (§4) After last staining step, the cells were washed again and resuspended in 0.2 mL of FACS buffer containing 2 μg/mL propidium iodide (PI) (Sigma, cat.: P4170) in order to exclude dead cells. The fluorescence of 2-5×10³ living cells was measured using a Beckman-Coulter FC500 MPL flow cytometer using the MXP software (Beckman-Coulter, Krefeld, Germany) or a Millipore Guava EasyCyte flow cytometer (Merck Millipore, Schwalbach, Germany). Mean fluorescence intensities of the cell samples were calculated using CXP software (Beckman-Coulter) or Incyte software (Merck Millipore, Schwalbach, Germany). After subtracting the fluorescence intensity values of the cells stained with the secondary and tertiary reagents alone, the values were used for non-linear regression analysis using the GraphPad Prism software (GraphPad Prism version 6.00 for Windows, GraphPad Software, La Jolla Calif. USA). For the calculation of KD, the equation for one-site-binding (hyperbola) was used.

human EGFR on cells [10] = target: T1, human EGFR on cells; assay: flow cytometry on CHO cells expressing recombinant human EGFR, 37°C; apparent affinity
Experimental: as §4

[11] = target: T5, CD16A on primary human NK-cells; assay: flow cytometry on primary human NK-cells, 37° C., with 10 mg/mL gammanorm (polyclonal human IgG)
Experimental: as §2, §3

EGFR-antigen (ELISA) = target: T7, EGFR-antigen (ELISA); assay: ELISA, coated EGFR-Fc antigen, tandem diabody titrated (His-tagged analyte, Penta-HIS-HRP per paragraph 126)
T7 construct: also called EGFR-Fc
Experimental: (§5) 96-well ELISA plates (Immuno MaxiSorp; Nunc) were coated overnight at 4° C. with recombinant antigen or antibodies in 100 mM Carbonate-bicarbonate buffer. […] After a blocking step with 3% (w/v) skim milk powder (Merck) dissolved in PBS, serial dilutions of the different antibodies or soluble antigens in PBS containing 0.3% (w/v) skim milk powder were incubated on the plates for 1.5 h at room temperature. After washing three times with 300 μL per well of PBS containing 0.1% (v/v) Tween 20, plates were incubated with detection antibodies for 1 h at room temperature. For the detection of His-tagged analytes, Penta-HIS-HRP (Qiagen) was used at 1:3000 dilution. […] After washing three times with 300 μL per well of PBS containing 0.1% (v/v) Tween 20, plates were incubated with Tetramethylbenzidine (TMB) substrate (Seramun) until colour development was clearly visible. The reaction was stopped through the addition of 100 μL per well of 0.5 M H₂SO₄. The absorbance was measured at 450 nm using a multilabel plate reader (Victor, Perkin Elmer).

CD16A-antigen (ELISA) = target: T8, CD16A-antigen (ELISA); assay: ELISA, coated CD16A-Fc antigen, tandem diabody titrated (His-tagged analyte, Penta-HIS-HRP per paragraph 126)
T8 construct: also called CD16A-Fc
Experimental: as §5

[12] = target: T5, CD16A on primary human NK-cells; assay: flow cytometry on primary human NK-cells, 37°C, with 10 mg/mL polyclonal human IgG (Gammanorm); mean of 2 experiments
Experimental: as §2, §3

human EGFR on cells [13] = target: T1, human EGFR on cells; assay: cell-based or functional assay; remark: listed apart in the source
huCD16A = huCD16A (human, UniProt P08637 17-208, limits assumed); assay: RIA assay on huCD16A with radioiodinated scFv-IgAB_02; RIA assay on huCD16A
[14] = target: T3, Cynomolgus FcRn (FCGRT/B2M); assay: SPR (Biacore T200), pH 6.0, biotinylated FcRn captured, multi cycle kinetics, 1:1 model
Experimental: as §1

Human FcRn (FCGRT/B2M) [15] = target: T2, Human FcRn (FCGRT/B2M); assay: as above
Experimental: as §1

Mouse FcRn (FCGRT/B2M) [16] = target: T4, Mouse FcRn (FCGRT/B2M); assay: as above
Experimental: as §1

human EGFR on cells [17] = target: T1, human EGFR on cells; assay: saturation binding assay on A-431 cells with radioiodinated scFv-IgAB_02; saturation binding assay on A-431 cells
EGFR-mFc = target: T9, EGFR-mFc; assay: ELISA, coated EGFR-mFc antigen, scFv-IgAb titrated, bound construct detected with biotinylated CD16-Fc and streptavidin-HRP
T9 construct: Coated at 2.5 µg/mL in ELISA; also called monomeric EGFR-mFc; EGFR-mFc antigen
Experimental: as §5

huCD16A^RV-His = target: T10, huCD16A^RV-His (human); assay: ELISA, coated EGFR/CD16A scFv-IgAb, soluble huCD16A^RV-His titrated (the concentration axis is that of the antigen), Penta-HIS-HRP per paragraph 126
T10 construct: soluble, His-tagged; also called CD16-His antigen
Experimental: as §5

T3 sequence (Q8SPV9 24-297 limits assumed, chain 1 of 2): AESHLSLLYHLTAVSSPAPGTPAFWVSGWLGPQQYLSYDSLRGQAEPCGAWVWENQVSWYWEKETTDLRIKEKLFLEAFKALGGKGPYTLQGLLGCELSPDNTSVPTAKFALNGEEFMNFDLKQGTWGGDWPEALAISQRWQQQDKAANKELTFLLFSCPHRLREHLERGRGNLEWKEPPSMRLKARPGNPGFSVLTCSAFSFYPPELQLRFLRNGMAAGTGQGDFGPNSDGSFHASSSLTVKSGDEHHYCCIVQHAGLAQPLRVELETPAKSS
T3 sequence (Q8SPW0 21-119 limits assumed, chain 2 of 2): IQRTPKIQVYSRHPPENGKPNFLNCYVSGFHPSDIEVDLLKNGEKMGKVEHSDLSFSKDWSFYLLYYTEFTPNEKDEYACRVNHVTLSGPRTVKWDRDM

EC50, inhibition of EGF-induced EGFR phosphorylation (phospho-EGFR ELISA, A-431 cells), Exp.1 (human EGFR on cells [3]): > 100 µg/mL | EC50, inhibition of EGF-induced EGFR phosphorylation (phospho-EGFR ELISA, A-431 cells), Exp.2 (human EGFR on cells [3]): > 100 µg/mL | Kd (human EGFR on cells [4]): 0.3 nM | EC50 (read off the curve) (human EGFR on cells [5]): ~2 nM | binding result (Human FcRn (FCGRT/B2M) [6]): no binding (tested: up to 3000 nM) | binding result [7]: no binding (tested: up to 3000 nM) | binding result (Mouse FcRn (FCGRT/B2M) [8]): no binding (tested: up to 3000 nM) | Kd [9]: 7.7 nM | Kd (EGFRvIII on CHO cells): 0.5 nM | Kd (human EGFR on cells [10]): 0.7 nM | EC50 (read off the curve) [11]: ~10 nM | EC50 (read off the curve) (EGFR-antigen (ELISA)): ~0.02 µg/mL | EC50 (read off the curve) (CD16A-antigen (ELISA)): ~0.03 µg/mL | Kd [12]: 8.8 nM
B1: EGFR/CD16A tandem diabody (bispecific antibody)
chain: QVQLQESGPGLVKPSETLSLTCTVSGGSVSSGSYYWSWIRQPPGKGLEWIGYIYYSGSTNYNPSLKSRVTISVDTSKNQFSLKLSSVTAADTAVYYCARNPISIPAFDIWGQGTMVTVSSGGSGGSGGSSYVLTQPSSVSVAPGQTATISCGGHNIGSKNVHWYQQRPGQSPVLVIYQDNKRPSGIPERFSGSNSGNTATLTISGTQAMDEADYYCQVWDNYSVLFGGGTKLTVLGGSGGSQVQLVQSGAEVKKPGESLKVSCKASGYTFTSYYMHWVRQAPGQGLEWMGIINPSGGSTSYAQKFQGRVTMTRDTSTSTVYMELSSLRSEDTAVYYCARGSAYYYDFADYWGQGTLVTVSSGGSGGSGGSQPVLTQPPSVSVAPGKTARITCGGNNIGSKSVHWYQQKPGQAPVLVIYYDSDRPSGIPERFSGSNSGNTATLTISRVEAGDEADYYCQVWDTSSDHVLFGGGTKLTVLAAAGSHHHHHH
notes: no Fc; also called Tandem diaody
EC50 [pM] mean, 4 h calcein-release cytotoxicity, A-431 target cells, human NK-cells E:T 5:1 (human EGFR on cells [1]): 1.1 pM | EC50 [pM] mean, 4 h calcein-release cytotoxicity, HCT-116 target cells, human NK-cells E:T 5:1 (human EGFR on cells [2]): 1.5 pM

EC50 [µg/mL] on A-431 cells, inhibition of EGF-stimulated EGFR phosphorylation (phospho-EGFR ELISA) (human EGFR on cells [13]): 1520 µg/mL | EC50 [µg/mL] on A-549 cells, inhibition of EGF-stimulated EGFR phosphorylation (phospho-EGFR ELISA) (human EGFR on cells [13]): 478 µg/mL | EC50 (read off the curve) (human EGFR on cells [5]): ~2 nM | Kd (huCD16A): 0.729 nM | Kd [9]: 8 nM | Kd [14]: 842 nM | Kd (Human FcRn (FCGRT/B2M) [15]): 430 nM | Kd (Mouse FcRn (FCGRT/B2M) [16]): 180 nM | Kd (human EGFR on cells [17]): 6.98 nM | Kd [12]: 13.1 nM | EC50 (read off the curve) (EGFR-mFc): ~0.02 µg/mL | EC50 (read off the curve) (huCD16A^RV-His): ~1 nM
B2: scFv-IgAb_02 (bispecific antibody)
heavy: QVQLVQSGAEVKKPGESLKVSCKASGYTFTSYYMHWVRQAPGQGLEWMGIINPSGGSTSYAQKFQGRVTMTRDTSTSTVYMELSSLRSEDTAVYYCARGSAYYYDFADYWGQGTLVTVSSASTKGPSVFPLAPSSKSTSGGTAALGCLVKDYFPEPVTVSWNSGALTSGVHTFPAVLQSSGLYSLSSVVTVPSSSLGTQTYICNVNHKPSNTKVDKKVEPKSCDKTHTCPPCPAPEFEGGPSVFLFPPKPKDTLMISRTPEVTCVVVAVSHEDPEVKFNWYVDGVEVHNAKTKPREEQYNSTYRVVSVLTVLHQDWLNGKEYKCKVSNKALPAPIEKTISKAKGQPREPQVYTLPPSREEMTKNQVSLTCLVKGFYPSDIAVEWESNGQPENNYKTTPPVLDSDGSFFLYSKLTVDKSRWQQGNVFSCSVMHEALHNHYTQKSLSLSPGGGGGSGGGGSQVQLQESGPGLVKPSETLSLTCTVSGGSVSSGSYYWSWIRQPPGKGLEWIGYIYYSGSTNYNPSLKSRVTISVDTSKNQFSLKLSSVTAADTAVYYCARNPISIPAFDIWGQGTMVTVSSGGSGGSGGSGGSGGSGGSQPVLTQPPSVSVAPGKTARITCGGNNIGSKSVHWYQQKPGQAPVLVIYYDSDRPSGIPERFSGSNSGNTATLTISRVEAGDEADYYCQVWDTSSDHVLFGGGTKLTVL
light: SYVLTQPSSVSVAPGQTATISCGGHNIGSKNVHWYQQRPGQSPVLVIYQDNKRPSGIPERFSGSNSGNTATLTISGTQAMDEADYYCQVWDNYSVLFGGGTKLTVLGQPKAAPSVTLFPPSSEELQANKATLVCLISDFYPGAVTVAWKADSSPVKAGVETTTPSKQSNNKYAASSYLSLTPEQWKSHRSYSCQVTHEGSTVEKTVAPTECS
notes: Tetravalent, bispecific: anti-CD16A Fab arms, silenced human IgG1 Fc, anti-EGFR scFv fused C-terminally to CH3; also called EGFR/CD16A scFv-IgAb; scFv-IgAb_2
EC50 [pM] mean, 4 h calcein-release cytotoxicity, A-431 target cells, human NK-cells E:T 5:1 (human EGFR on cells [1]): 2.1 pM | EC50 [pM] mean, 4 h calcein-release cytotoxicity, HCT-116 target cells, human NK-cells E:T 5:1 (human EGFR on cells [2]): 4.3 pM
